The source of these data is patent publication US20170260241A1 (KEMYTH BIOTECH, published 2017).

Test [1] deals with T1, recombinant TLR4 protein.
T1 construct: also called Toll-like receptor 4
In words: competition ELISA: peptide titrated from 50 µM to 3.05 nM against MD2 (50 nM) on plate-coated TLR4; competitor MD2.

Test [2] deals with T1, recombinant TLR4 protein. In words: competition ELISA: TLR4 coated (2 µg/mL), MD2 (50 nM) mixed with titrated peptide, residual bound MD2 detected with anti-MD2 and anti-mouse IgG-HRP, OD450; competed ligand: MD2.

B1: N35PLY4 (N-terminal 35 amino acid fragment of C70PLY4, 402-436 amino acid residues) (peptide)
peptide: QDLTAHFTTSIPLKGNVRNLSVKIRECTGLAWEWW
On to B1, for which the inhibition constant Ki in test [1] came out at 11200 nM.

B2: C70PLY4 (C-terminal 70 amino acid fragment of pneumolysin, 402-471 amino acid residues) (peptide)
peptide: QDLTAHFTTSIPLKGNVRNLSVKIRECTGLAWEWWRTVYEKTDLPLVRKRTISIWGTTLYPQVEDKVEND
On to B2, for which the Ki in test [1] is 74.8 nM. Further, the “IC50 (read off the curve)” value in test [2] is approximately 300 nM.
